The nanobody polyreactivity screen of Harvey et al. (2022)

Experiment: yeast display, Sf9 membrane polyspecificity reagent, FACS + sequencing; frameworks hold sequencing errors
Method in brief: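 A synthetic nanobody library was expressed on Saccharomyces cerevisiae BJ5465 by galactose induction for 36–48 hours. The library was stained for 1 hour at 4 °C with 10% biotinylated, detergent-solubilized Sf9 membrane reagent and enriched with streptavidin microbeads before FACS. Low and high (top ~1%) gates were set on anti-HA fluorescence for expression and streptavidin fluorescence for reagent binding, and each polyreactivity label reflects the gate of origin.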

Sequence | polyreactivity (PSR sort gate)
QVQLVESGGGLVQAGGSLRISCAASGNIFSYYAMGWYRQAPGKERELVAAISSGGSTYYADSVKGRFTISRDNGMNTVYLQMNSLKPEDTAVYYCNKLAYVGRYGYWGQGTEVTVSS | high polyreactivity
QVQLVESGGGLVQAGGSLRISCAASGNIFVDYAMGWYTQAPGKERELVATITRTGDSTTYADSVKGRFTISRDNAKNTVYLQMNSLKPEDTAVYYCNTDLRLVYRTKGFISWGYDYWGQGTQVTVSS | low polyreactivity
QVQLVESGGGLVQAGGSLRISCAASGPTFGYNGMGWYRQAPGKERELVAAINSGGNTNYADSVKGRFTISRDNAKYTVDFQLNSLKPEDTAVYYCAKYGTLYEPVPNEYDYWGQGTQVTVSS | low polyreactivity
QVQLVESGGGLVQAGGSLRISCAASGPTFPLYAMGGNRQAPGKERELVAAIRTGGSTNYADSVKGRFTISRDNAKNTVYLQMNSLKPEDTAVSYCAAVQRTDRSAHYSWGHGTQVTVSS | low polyreactivity
QVQLVESGGGLVQAGGSLRISCAASGRIFAGYSMGWYRQAPGKERELVAAIRTRGGSTYYADSVKGRFTISRDKAKNTVYLQMNSLKPEDTEVYYCAATPTWYIWYTYDYWGQGPQVTVSS | high polyreactivity
QVQLVESGGGLVQAGGSLRISCAASGRIFDTYVMGWYRQAPGKERELVAAISGSGGSTYYADSVKGRFTISRDNAKNTVYLQMNSLKPEDTAVYYCAAARRYYAYRYDYWGQGTQVTVSS | high polyreactivity
QVQLVESGGGLVQAGGSLRISCAASGRIFGGYAMGWYRQAPGKERELVAAITSGARTKYADSVKGRFTISRDNAKNTVYLQMNSLKPEDTAVYYCAADGFYDGDYWGQGTQVTVSS | high polyreactivity
QVQLVESGGGLVQAGGSLRISCAASGRIFGLYAMGWYRQAPGKERELVATINNSGGSTYYADSVKGRFTISRDNAKNTVYLEMKSLKPEDTAVYYCNAEFLYAASFIEYDYWGQVTQVTVSS | high polyreactivity
QVQLVESGGGLVQAGGSLRISCAASGRIFGTNAMGWYRQAPGKERELVADITSGGSTNYADSVKGRFTISRDNAKNTVYLQMNSLKPEDTAVYYCAAVVIGDLRWYRDEYWGQGTQVTVSS | low polyreactivity
QVQLVESGGGLVQAGGSLRISCAASGRIFKYYGMGWYRQAPGKERELVAAITRGDSTNYADSVKGRFTISRDNAKNTVYLQMNSLKPEETAVYYCNVGTRRGYDYWGQGTQVTVSS | high polyreactivity
QVQLVESGGGLVQAGGSLRISCAASGRIFNYYDMGWYRQAPGKERELVAAISWRGTSTRYADSVKGRFTISRDNAKNTVYLQMQSLKPEDTAVYYCAADDYARRFSFKYDYWGQGTQVTVSS | high polyreactivity
QVQLVESGGGLVQAGGSLRISCAASGRIFRGYAMGWYRQAPGKEMELVAGITTSGGDTSYADSVKGRFTISRDNAKNTVYLQMNSLKPEDTAVYYCNASPFYYRPRYPMDYWGQGTQVTVSS | high polyreactivity
QVQLVESGGGLVQAGGSLRISCAASGRIFSYNAMGWYRQAPGKERELVASISRGGSTYADSVKGRFTISRDNAKNTVYLQMNRLQPADTAVYYCNAVHFSYEYDYWGQGTQVTVSS | high polyreactivity
QVQLVESGGGLVQAGGSLRISCAASGRIFTPNAMGWYRQAPGKERELVAAITWSGDNTYADSVKGRFTISRDNAKKTVYLHMNTLKPEDTAVYYCAAAYGYGHKKYGYWGQGTQVTVSS | low polyreactivity
QVQLVESGGGLVQAGGSLRISCAASGRIFYNNDMAWYRQAPGKERELVAAITVRGSITYYADSVKGRFTISRDNAKTTVYLHMNSLKPEDTAVYYCATEWVNRLYSWGQGTQVTVSS | low polyreactivity
QVQLVESGGGLVQAGGSLRISCAASGRIFYYYDMGWYRQAPGKERELVAAISRSGGRTYYADSVKGRFTISRDNANNTVYLHMNSLKPEDTAVYYCNVVRQGGTLGYDYWGQGTQVTVSS | high polyreactivity
QVQLVESGGGLVQAGGSLRISCAASGRILYLNAMGWYRQAPGIEREFVAAISKSGGTTYYADSVKGRFTISRDKAKHTDYLQMNSLKPEDTAVFYCAVDIVRCGRDSWGQGTQVTVSS | low polyreactivity
QVQLVESGGGLVQAGGSLRISCAASGRIYNRNAMGWYRQAPGKERELVAAIRSDGTTNYADSVKGRFTISRDNAKNTVYLQMISLKPEDTAVYYCNAEEGYHWWIIPEEDDYWGQGTQVTVSS | low polyreactivity
QVQLVESGGGLVQAGGSLRISCAASGRIYVYNVMGWSRQAPGKETELVAAISWGTGSTYADSVKGRFTISRDNAKNTVYLQMNSLKPEDTAVYYCAAAADYYYDHDYWGQGTQVTVSS | low polyreactivity
QVQLVESGGGLVQAGGSLRISCAASGRTFCNNAMGWYRQAPGKERELVAAITSTGSRTYYADSVKGRFTISRDNAKNTVYLQMNSLKPEDTAVYYCNRVSHLDYYWGQGTQVTVSS | high polyreactivity
QVQLVESGGGLVQAGGSLRISCAASGRTFLVYTMGWYRQAPGKERELVAAISWSDGSTYYADSVKGRFTISRDNAKNTVYLQMNSLKPEDTAVYYCAARRTGYLYRYGYWGQGTQVTVSS | low polyreactivity
QVQLVESGGGLVQAGGSLRISCAASGRTFSRYAMGWYRQAPGKERELVAAITRGGGGTYYADSVKGRFTISRDNAKNTVYLQMNSLKPEDTAVYYCNRVLLPGPQYQWGKAYDYWGQGTQVTVSS | high polyreactivity

Sequence | polyreactivity (PSR sort gate)
QVQLVESGGGLVQAGGSLRISCAASGRTFWKYAMGWYRQAPGKERELVAAITASGARTYYADSVKGRFTISRDNAKNTVYLQMNSLKPEDTAVYYCNAGSVSDRQMDYWGQGTQVTVSS | low polyreactivity
QVQLVESGGGLVQAGGSLRISCAASGRTGKNAMVWYRQARGNERELVAASRYNGGSTYYADSVKGRFTISRDNANNTVYLQKNIMKPEYTAVYYCAAAFRRHNGSAFNYWGHGTQVTVSS | high polyreactivity
QVQLVESGGGLVQAGGSLRISCAASGRTLRYYAMGWYRQAPGKERELVAAITSSDRTYYADSVKGRFTISRDNAKNTVYLQMNSLKPEDTAVYYCAAYRATQFGYYYWGQGTQVTVSS | high polyreactivity
QVQLVESGGGLVQAGGSLRISCAASGSIFASKTMGWYRQAPGKERELVAGITKIGSSTYYADSVKGRFTISRDNAKNTVYLQMNSLKPEETAVYYCNAYLSPKQPLSPPEPTFEGGYWGQGTQVTVSS | low polyreactivity
QVQLVESGGGLVQAGGSLRISCAASGSIFDLNAMGWYRQAPGKERELVAAISSGGRTTYADSVKGRFTISRDNAKNTVYLQMNSLKPEDTAFYYCNAVGDVFPRTGPIYDYWGQGSQVTVSS | high polyreactivity
QVQLVESGGGLVQAGGSLRISCAASGSIFPFYAMGWYRQAPGKERELVAAISDRGGSTYYADSVKGRFTISRDNAKNTVYLQMNSLKPEDTAVYYCAKGGEVSQGYTDEYDYWGQGTQVTVSS | low polyreactivity
QVQLVESGGGLVQAGGSLRISCAASGSIFPYNDMGWYRQAPGKERELVAVITSSGGSTYYADSVKGRFTISRDNAKNTVYLQMNSLKPEDTAVYYCAARGYNYYFGGYDYWGQGTQVTVSS | low polyreactivity
QVQLVESGGGLVQAGGSLRISCAASGSIFSFYAMGWYRQAPGKERELVAAISSGGSTYYADSVKGRFTISRDNAKNTVYLQMNSLKPEDTAVYYCAHGFAQYGLDLDPGDYDYWGQGTQVTVSS | low polyreactivity
QVQLVESGGGLVQAGGSLRISCAASGSIFTSNVMGWYRQAPGKERELVAAITITGTTNYADSVKGRFTISRDNAKNTVYLQMNSLKPEDTAVYYCAKRYYRFYQGWPPEDYWGQGTQVTVSS | low polyreactivity
QVQLVESGGGLVQAGGSLRISCAASGSIFVEYDMGWYRQAPGKERELVADISGTGNTYYADSVKGRFTISRDNAKNTVYLQMNSLKPEDTAVYYCAAGTYYQNYWSPFVWYDYWGQGTQVTVSS | high polyreactivity
QVQLVESGGGLVQAGGSLRISCAASGSIFYNYAMGWYRQAPGKERELVAAINRSGGITFYADSVKGRFTISRDNAKNTVYLQMNSLKPEDTAVYYCAADRSFGHHYWYTGKRYDYWGQGTQVTVSS | low polyreactivity
QVQLVESGGGLVQAGGSLRISCAASGSILDGNAMGLYRQAPGKERELFAGISESDGSTNYADSVKGRFTISRDNAKNTVYLQMNSLNPEDTAVYYCAADIWTCGDIPYDYWGQGTQVTVSS | low polyreactivity
QVQLVESGGGLVQAGGSLRISCAASGSNLSPYVMGWYRQAPGKERELVSTISRSGGRTYYADSEKGRFTISRDNAKNTFNLQMNSLKPEDTAVYYCAREDWGSYSDMDSWGQGTQVTVSS | low polyreactivity
QVQLVESGGGLVQAGGSLRISCAASGSTFDGYAMGWYRQAPGKERELVAAITRGGSTNYADSVKGRFTISRDNAKNTVYLQMNSLKPEDTAVYYCNARLWKRYPYDGYGYWGQGTQVTVSS | high polyreactivity
QVQLVESGGGLVQAGGSLRISCAASGSTFDYDDMRWYRQAPGKERELVASITSGGITDYADSVKGRFTISRDNAKNTVYLQMNSLTPEDTAVYYCNAARQYSRSAEGYLVWGYSWGQGTQVTVSS | low polyreactivity
QVQLVESGGGLVQAGGSLRISCAASGSTFEDNAMGWYRQAPGKERELVAAITSGGNTYYADSVKGRFTISRDNSKNTVYLQMNSLKPEDTAVYYCNAVPFYYDFDYWGQGTQVTVSS | low polyreactivity
QVQLVESGGGLVQAGGSLRISCAASGSTFGPYAMGWYRQAPGKERELVAAIRWSDGSTYYADSVKGRFTISRDNANNTVYLQMNTLKPEDTAVSYCAVDGYGYNDDYWGQGTQVTVSS | high polyreactivity
QVQLVESGGGLVQAGGSLRISCAASGSTFNINAMGWYRQAPGKERELVAAIRYRGGSTNYADSVKGRFTISRDNAKNNVYLQMNSLKPEDTAVYYCAATYSRHTNGYSKYCYWGQGTQVTVSS | high polyreactivity
QVQLVESGGGLVQAGGSLRISCAASGSTFPYNAMGWYRQAPGKERELVATIDRGSTTNYADSVKGRFTISRDNAKNTVYLQMNSLKPEDTAVYYCAADANGYYNYDYWGQGTQVTVSS | low polyreactivity
QVQLVESGGGLVQAGGSLRISCAASGSTFQGYAMGWYREAPGKERELVAAISGRSGSTYYADSVKGRFTISRDNAKNTVFLTMNSLKPVDSAVYYCNARFNRSRRTYDYWVQGTQVTVSS | high polyreactivity
QVQLVESGGGLVQAGGSLRISCAASGSTFQLYSMGWSRQAPGKEREFVAAITYSGGGSTSYADSVKGRFTISRDNAKNTVYLQMNSLKPEDTAVFYCAARDFETDGYTLVAYNYWGQGSQVTVSS | low polyreactivity
